According to patent publication US20030105008A1 (BRIGHAM AND WOMEN S HOSPITAL, published 2003):

B1: GSTORC5 (GST fused to human ORC5) (other, UniProt O43913 1-435, looked up)
chain: MPHLENVVLCRESQVSILQSLFGERHHFSFPSIFIYGHTASGKTYVTQTLLKTLELPHVFVNCVECFTLRLLLEQILNKLNHLSSSEDGCSTEITCETFNDFVRLFKQVTTAENLKDQTVYIVLDKAEYLRDMEANLLPGFLRLQELADRNVTVLFLSEIVWEKFRPNTGCFEPFVLYFPDYSIGNLQKILSHDHPPEYSADFYAAYINILLGVFYTVCRDLKELRHLAVLNFPKYCEPVVKGEASERDTRKLWRNIEPHLKKAMQTVYLREISSSQWEKLQKDDTDPGQLKGLSAHTHVELPYYSKFILIAAYLASYNPARTDKRFFLKHHGKIKKTNFLKKHEKTSNHLLGPKPFPLDRLLAILYSIVDSRVAPTANIFSQITSLVTLQLLTLVGHDDQLDGPKYKCTVSLDFIRAIARTVNFDIIKYLYDFL
notes: Baculovirus-expressed; not shown: GST tag of the pFB-GST vector

Assays:
[1] = target: T1, ORC2, ORC3 and ORC4 co-expressed with GSTORC5 (human, UniProt Q13416 1-577; Q9UBD5 1-711; O43929 1-436); assay: GST pull-down on glutathione beads from Sf9 cells expressing human ORC1-6 with ORC5 GST tagged; immunoblot
T1 construct: The set of untagged subunits that come down with GSTORC5; written as one partner because the pairwise tests of GSTORC5 with each of them were negative; also called ORC2, 3 and 4
Description: (§1) The cell suspension was homogenized in a Dounce homogenizer using a B-type pestle followed by centrifugation at 3000 rpm for 7 min. The pellet containing the nuclei was lysed in buffer H/0.15 (50 mM HEPES.KOH, pH 7.5; 150 mM KCl; 0.02% NP-40; 5 mM Magnesium acetate; 1 mM EDTA; 1 mM EGTA; 10% glycerol, 1 mM PMSF, 2 μg/ml pepstatin, 2 μg/ml leupeptin, 5 μg/ml aprotinin, 1 mM DTT). The resulting suspension was subjected to ammonium sulfate precipitation (starting with 10% followed by 30% and finally 50%). The pellet following 50% ammonium sulfate cut was resuspended in buffer H/0.0 (no salt) and then dialyzed overnight against buffer H/0.15. […] Proteins were eluted using reduced glutathione elution buffer (50 Mm Tris.Cl, pH 8.0; 20 mM reduced glutathione; 0.01% NP-40; 100 mM NaCl). Gel filtration of glutathione eluate using fast protein liquid chromatography Superose 12 (Amersham Pharmacia Biotech Inc, Piscataway, N.J.) column was performed as described previously (Dhar, S. K. & Dutta, A. J Biol Chem 275:34983-8, 2000).
(§2) To purify recombinant six protein human origin recognition complex, Sf9 insect cells were infected with baculoviruses expressing human ORC1-6 subunits.

[2] = target: T2, ORC2+3 core complex (human, UniProt Q13416 1-577; Q9UBD5 1-711); assay: co-expression of GSTORC5, ORC2 and ORC3 in Sf9 cells, glutathione beads, immunoblot
T2 construct: Untagged ORC2 and ORC3 co-expressed in Sf9 cells with a GST-tagged third subunit; also called ORC2+3 subcomplex; ORC2-3 complex
T2 sequence (looked up) 1: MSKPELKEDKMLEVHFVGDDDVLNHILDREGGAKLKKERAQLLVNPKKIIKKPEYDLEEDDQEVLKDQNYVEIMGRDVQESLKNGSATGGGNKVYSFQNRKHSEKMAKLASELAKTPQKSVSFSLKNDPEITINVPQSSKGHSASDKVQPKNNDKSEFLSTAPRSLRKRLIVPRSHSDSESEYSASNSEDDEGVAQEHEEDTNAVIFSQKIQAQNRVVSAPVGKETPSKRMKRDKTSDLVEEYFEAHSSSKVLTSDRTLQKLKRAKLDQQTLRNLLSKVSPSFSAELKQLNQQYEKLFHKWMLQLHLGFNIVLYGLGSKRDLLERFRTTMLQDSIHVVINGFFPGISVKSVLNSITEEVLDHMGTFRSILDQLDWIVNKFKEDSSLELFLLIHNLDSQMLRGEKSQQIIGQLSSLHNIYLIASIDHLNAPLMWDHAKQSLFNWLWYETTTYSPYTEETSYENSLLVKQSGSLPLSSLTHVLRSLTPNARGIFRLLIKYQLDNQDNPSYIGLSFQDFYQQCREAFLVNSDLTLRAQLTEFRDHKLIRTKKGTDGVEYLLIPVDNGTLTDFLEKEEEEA
T2 sequence (looked up) 2: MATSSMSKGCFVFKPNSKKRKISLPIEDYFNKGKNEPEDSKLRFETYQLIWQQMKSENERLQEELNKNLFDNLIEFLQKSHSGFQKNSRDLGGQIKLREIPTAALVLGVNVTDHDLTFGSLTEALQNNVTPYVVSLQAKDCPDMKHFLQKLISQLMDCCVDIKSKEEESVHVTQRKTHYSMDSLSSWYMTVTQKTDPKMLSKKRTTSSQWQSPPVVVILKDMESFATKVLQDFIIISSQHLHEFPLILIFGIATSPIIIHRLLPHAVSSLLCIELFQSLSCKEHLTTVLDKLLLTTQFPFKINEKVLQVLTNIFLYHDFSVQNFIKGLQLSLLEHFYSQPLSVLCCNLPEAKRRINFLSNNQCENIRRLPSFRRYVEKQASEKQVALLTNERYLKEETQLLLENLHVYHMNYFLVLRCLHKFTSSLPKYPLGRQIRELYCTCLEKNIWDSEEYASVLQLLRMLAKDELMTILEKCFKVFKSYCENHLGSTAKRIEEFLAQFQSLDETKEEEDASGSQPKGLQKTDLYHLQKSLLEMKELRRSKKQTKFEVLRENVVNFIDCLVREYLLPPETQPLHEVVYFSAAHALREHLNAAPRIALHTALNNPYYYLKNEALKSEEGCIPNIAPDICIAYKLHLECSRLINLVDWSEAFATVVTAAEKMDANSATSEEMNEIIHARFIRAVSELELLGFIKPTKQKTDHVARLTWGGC
Description: as §1, with “Cells were harvested 48 hours post-infection. The cell pellet was washed once in cold phosphate buffered saline (PBS), and subsequently resuspended in hypotonic lysis buffer (10 mM Tris.Cl, pH 7.9; 10 mM KCl; 1.5 mM MgCl₂; 1 mM Phenylmethylsulfonyl Fluoride (PMSF); 2 μg/ml pepstatin; 2 μg/ml leupeptin; 5 μg/ml aprotinin; 1 mM DTT). The cell” for “The cell”

[3] = target: T3, GST (glutathione S transferase), control protein (UniProt P08515 1-218 = GST); assay: GST pull-down of 35S-labelled in vitro translated ORC3N (control of the GSTORC2C experiment)
T3 construct: Negative control in the pull-downs; also called control GST
Text: (§3) Pull-down assays on glutathione agarose beads were done as described in (Lin, Y. L., et al., J Biol Chem 271:17190-8, 1996).

[4] = target: T4, GSTORC2 (GST fused to full-length human ORC2) (human, UniProt Q13416 1-577); assay: GST pull-down of 35S-labelled in vitro translated ORC3N on bacterially expressed GSTORC2
T4 construct: domain: full-length; also called GSTO2; not shown: GST tag of pFB-GST (baculovirus) or pGEX-5X-3 (bacterial)
T4 sequence (looked up): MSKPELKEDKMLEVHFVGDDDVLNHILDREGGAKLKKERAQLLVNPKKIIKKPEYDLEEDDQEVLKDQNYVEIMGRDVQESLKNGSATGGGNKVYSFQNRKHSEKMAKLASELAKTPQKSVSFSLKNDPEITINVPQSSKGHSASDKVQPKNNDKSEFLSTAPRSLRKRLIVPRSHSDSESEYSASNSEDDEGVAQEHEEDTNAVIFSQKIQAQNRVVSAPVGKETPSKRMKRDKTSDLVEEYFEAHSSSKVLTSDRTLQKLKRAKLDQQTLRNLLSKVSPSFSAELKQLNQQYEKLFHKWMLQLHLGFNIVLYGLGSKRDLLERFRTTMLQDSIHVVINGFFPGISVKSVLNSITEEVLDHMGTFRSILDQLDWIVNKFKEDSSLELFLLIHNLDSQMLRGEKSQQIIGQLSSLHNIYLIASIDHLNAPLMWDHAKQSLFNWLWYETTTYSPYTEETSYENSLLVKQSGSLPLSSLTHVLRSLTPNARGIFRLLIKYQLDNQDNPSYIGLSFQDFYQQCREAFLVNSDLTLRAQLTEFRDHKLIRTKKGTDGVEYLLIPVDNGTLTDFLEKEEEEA
Text: as §3

[5] = target: B1; assay: glutathione beads from Sf9 cells co-expressing GSTORC5, ORC2, ORC4 and ORC3N; western blot
Description: as §1

[6] = target: T5, complex of GSTORC5, ORC2, ORC3 and ORC4 (human, UniProt O43913 1-435; Q13416 1-577; Q9UBD5 1-711; O43929 1-436); assay: GST pull-down on glutathione beads from Sf9 cells expressing human ORC1-6 with ORC5 GST tagged; immunoblot
T5 construct: Complex purified on glutathione beads from Sf9 cells; also called GSTORC5, 2, 3 and 4; ORC2, 3, 4 and 5 core complex; not shown: GST tag of the pFB-GST vector
Description: as §1, §2

[7] = target: T2, ORC2+3 core complex; assay: co-expression of GSTORC4, ORC2 and ORC3 in Sf9 cells, glutathione beads, immunoblot
Description: as §1, with “Cells were harvested 48 hours post-infection. The cell pellet was washed once in cold phosphate buffered saline (PBS), and subsequently resuspended in hypotonic lysis buffer (10 mM Tris.Cl, pH 7.9; 10 mM KCl; 1.5 mM MgCl₂; 1 mM Phenylmethylsulfonyl Fluoride (PMSF); 2 μg/ml pepstatin; 2 μg/ml leupeptin; 5 μg/ml aprotinin; 1 mM DTT). The cell” for “The cell”

T3 sequence (P08515 whole entry): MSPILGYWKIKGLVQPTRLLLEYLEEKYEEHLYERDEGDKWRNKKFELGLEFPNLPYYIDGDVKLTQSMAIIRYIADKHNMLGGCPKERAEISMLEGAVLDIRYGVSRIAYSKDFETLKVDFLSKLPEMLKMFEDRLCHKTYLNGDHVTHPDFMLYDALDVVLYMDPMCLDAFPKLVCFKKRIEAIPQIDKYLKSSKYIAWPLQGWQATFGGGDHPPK

B1: binds [1]; binds [2].

B2: ORC3N (ORC3N200), N-terminal 200 amino acids of human ORC3 (other)
chain: MATSSMSKGCFVFKPNSKKRKISLPIEDYFNKGKNEPEDSKLRFETYQLIWQQMKSENERLQEELNKNLFDNLIEFLQKSHSGFQKNSRDLGGQIKLREIPTAALVLGVNVTDHDLTFGSLTEALQNNVTPYVVSLQAKDCPDMKHFLQKLISQLMDCCVDIKSKEEESVHVTQRKTHYSMDSLSSWYMTVTQKTDPKML
notes: also called construct 3
B2: no binding [3]; binds [4]; no binding [5].

B3: human ORC6, untagged (other, UniProt Q9Y5N6 1-252, looked up)
chain: MGSELIGRLAPRLGLAEPDMLRKAEEYLRLSRVKCVGLSARTTETSSAVMCLDLAASWMKCPLDRAYLIKLSGLNKETYQSCLKSFECLLGLNSNIGIRDLAVQFSCIEAVNMASKILKSYESSLPQTQQVDLDLSRPLFTSAALLSACKILKLKVDKNKMVATSGVKKAIFDRLCKQLEKIGQQVDREPGDVATPPRKRKKIVVEAPAKEMEKVEEMPHKPQKDEDLTQDYEEWKRKILENAASAQKATAE
B3: no binding [6].

B4: GSTORC4 (GST fused to human ORC4) (other, UniProt O43929 1-436, looked up)
chain: MSSRKSKSNSLIHTECLSQVQRILRERFCRQSPHSNLFGVQVQYKHLSELLKRTALHGESNSVLIIGPRGSGKTMLINHALKELMEIEEVSENVLQVHLNGLLQINDKIALKEITRQLNLENVVGDKVFGSFAENLSFLLEALKKGDRTSSCPVIFILDEFDLFAHHKNQTLLYNLFDISQSAQTPIAVIGLTCRLDILELLEKRVKSRFSHRQIHLMNSFGFPQYVKIFKEQLSLPAEFPDKVFAEKWNENVQYLSEDRSVQEVLQKHFNISKNLRSLHMLLMLALNRVTASHPFMTAVDLMEASQLCSMDSKANIVHGLSVLEICLIIAMKHLNDIYEEEPFNFQMVYNEFQKFVQRKAHSVYNFEKPVVMKAFEHLQQLELIKPMERTSGNSQREYQLMKLLLDNTQIMNALQKYPNCPTDVRQWATSSLSWL
notes: as for B1
B4: no binding [7].
